Reference: article PMC11992676

Target: T1, TRF1 (recombinant, in-house purified) (UniProt P54274)
T1 sequence: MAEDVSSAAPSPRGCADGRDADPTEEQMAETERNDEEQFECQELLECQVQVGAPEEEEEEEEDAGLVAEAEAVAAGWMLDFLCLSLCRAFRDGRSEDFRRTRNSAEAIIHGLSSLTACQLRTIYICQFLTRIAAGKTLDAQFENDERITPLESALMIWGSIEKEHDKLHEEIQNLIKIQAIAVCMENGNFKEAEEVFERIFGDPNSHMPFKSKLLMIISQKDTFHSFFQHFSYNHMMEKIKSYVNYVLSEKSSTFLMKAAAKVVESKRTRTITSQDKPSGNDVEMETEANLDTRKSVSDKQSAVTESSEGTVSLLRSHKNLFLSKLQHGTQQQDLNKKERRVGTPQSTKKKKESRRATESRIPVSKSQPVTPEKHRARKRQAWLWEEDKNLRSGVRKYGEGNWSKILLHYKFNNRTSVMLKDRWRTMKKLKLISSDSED
Test: EMSA
Settings: 2 mM Mg2+, 50 mM Tris-Cl pH 8.0, 2 mM MgCl2, 150 mM KCl, 0.5 mM DTT, 10% glycerol, 5 nM oligonucleotide, 30 min room temperature, 1% agarose gel in 1x TBE at 4 C

Sequence: GACCATGCTTAGGGTTAGGGTTAGGGTTAGGGTTATCATACAA (double strand) [TelDNA]
- binding signal (scale: fold): 1

Sequence: GACCATGCTTATCCCCATTTGTATTATCCCCATTTCATACAAA (double strand) [Non-TelDNA]
- binding signal (fold lower binding than TelDNA): 5

Sequence: GACCAUGCUUAGGGUUAGGGUUAGGGUUAGGGUUAUCAUACAA / TTGTATGATAACCCTAACCCTAACCCTAACCCTAAGCATGGTC [Telomeric DNA:RNA hybrid]
- binding signal (fold lower affinity than TelDNA) (strand 1 is RNA, strand 2 is DNA): 7
